Assay results published in article PMC7069974, “Single molecule analysis reveals monomeric XPA bends DNA and undergoes episodic linear diffusion during damage search”.

B1: ND37 (dsDNA)
DNA 1: CCGAGTCATTCCTGCAGCGAGTCCATGGGAGTCAAAT
DNA 2: ATTTGACTCCCATGGACTCGCTGCAGGAATGACTCGG
modifications: 5'-phosphate top strand
B2: CPD37 (dsDNA)
DNA 1: CCGAGTCATTCCTGCAGCGATTCCATGGGAGTCAAAT
DNA 2: ATTTGACTCCCATGGAATCGCTGCAGGAATGACTCGG
modifications: CPD T<>T at T21-T22 of top strand; 5'-phosphate top strand
B3: AAF37 (dsDNA)
DNA 1: CCGAGTCATTCCTGCAGCGAGTCCATGGGAGTCAAAT
DNA 2: ATTTGACTCCCATGGACTCGCTGCAGGAATGACTCGG
modifications: dG-C8-AAF at G14 of top strand; 5'-phosphate top strand

Legend:
Test in all cases: EMSA; EMSA: 8 nM DNA, 20 mM HEPES pH 7.5, 150 mM NaCl, 5 mM DTT, 0.5 mg/ml BSA, 5% glycerol, 25 min at room temperature; gel 5% native, 0.5x TBE, 4 C. AFM: 100 nM DNA, 1-4 uM XPA (ND538)
Conditions in all cases: protein: recombinant, tags: N-terminal His, label: 5'-6FAM on bottom strand, blunt
[1] = target: T1, His-flXPA-StrepII (human, UniProt P23025 1-273)
T1 sequence (P23025 whole entry): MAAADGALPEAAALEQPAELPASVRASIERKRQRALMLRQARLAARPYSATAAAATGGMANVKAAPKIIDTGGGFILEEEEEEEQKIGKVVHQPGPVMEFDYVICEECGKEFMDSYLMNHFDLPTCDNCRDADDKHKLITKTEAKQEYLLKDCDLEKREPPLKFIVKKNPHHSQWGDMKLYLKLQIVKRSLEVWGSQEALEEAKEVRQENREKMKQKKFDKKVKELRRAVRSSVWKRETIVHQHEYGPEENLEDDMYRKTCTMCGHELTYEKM

[2] = target: His-truncXPA-StrepII (human, UniProt P23025 98-239)
Chain of His-truncXPA-StrepII (P23025 98-239): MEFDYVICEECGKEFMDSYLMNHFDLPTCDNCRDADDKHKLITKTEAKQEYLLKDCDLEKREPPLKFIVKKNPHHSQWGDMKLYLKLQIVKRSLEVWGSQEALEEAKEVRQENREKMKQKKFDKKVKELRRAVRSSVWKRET

[3] = target: T1, His-flXPA-StrepII; remark: listed apart in the source

| Binder | Kd [1] [nM] | Kd [2] [nM] | binding signal [3] |
| --- | --- | --- | --- |
| B1 | 253 ± 14 | 269 ± 22 | – |
| B2 | – | 269 ± 24 | ~44 fold specificity for CPD over non-damaged DNA (Kd ratio x 37 sites) |
| B3 | 109 ± 5 | 189 ± 9 | – |
